One experiment relates to postnatal mouse islets. As to the kind of experiment: rhWNT4 culture of postnatal islets from WT and β cell specific ERRγKO mice. The format is cell-based. The following applies: 100 ng/ml for 5 days; WT but not ERRγKO mice. The source says: FIGS. 8A-8H provide images, graphs, a schematic and a diagram showing results related to WNT4 mediated insulin-GFP expression and WNT4-driven metabolic maturation. FIG. 8A presents representative images of mitochondrial content, indicated by MitoTracker (red) staining, in PBS and WNT4 treated HILOs (scale bar, 100 μm). FIG. 8B presents graphs of flow cytometry quantification of insulin expression (GFP) and mitochondrial content in HILOs treated with recombinant human WNT4 (rhWNT4), WNT5A (rhWNT5A), or conditioned medium (CM) from control or WNT5A overexpressing fibroblasts (n=3). Error bars represent SEM. *p<0.05. […]
Insulin release from intact islets was monitored using batch incubation methods as reported by E. Yoshihara et al., 2016, Cell metabolism, 23:622-634. […] After 30 minutes, the islets were pelleted by centrifugation and secreted insulin levels were determined in the medium by Enzyme Linked Immunosorbent Assay (ELISA), (Rat/mouse Insulin ELISA KIT (Millipore) and Human Insulin ELISA KIT or ultrasensitive human c-peptide ELISA Kit (Millipore) for mouse and human islets, respectively). […] After 30 minutes, the cells were pelleted by centrifugation and c-peptide levels were determined in the supernatant medium using the human c-peptide ELISA KIT (Millipore). […]

Experiment [1] concerns insulin-expressing cells of HILOs. As to the kind of experiment: Mitochondrial content (MitoTracker) and insulin-GFP by flow cytometry. The experiment is classed as cell-based, human. The source says: FIGS. 8A-8H provide images, graphs, a schematic and a diagram showing results related to WNT4 mediated insulin-GFP expression and WNT4-driven metabolic maturation. FIG. 8A presents representative images of mitochondrial content, indicated by MitoTracker (red) staining, in PBS and WNT4 treated HILOs (scale bar, 100 μm). FIG. 8B presents graphs of flow cytometry quantification of insulin expression (GFP) and mitochondrial content in HILOs treated with recombinant human WNT4 (rhWNT4), WNT5A (rhWNT5A), or conditioned medium (CM) from control or WNT5A overexpressing fibroblasts (n=3). Error bars represent SEM. *p<0.05. FIG. 8C presents a gene ontology of transcriptional changes induced by WNT4 treatment (100 ng/ml WNT4 from day26 to day33) in HILOs. […] Error bars represent SEM. *p<0.05. FIG. 8E presents a Venn diagram showing overlap between WNT4-induced increases in chromatin accessibility in GFP^+ cells and increases in HILO gene expression (upper panel), and gene ontology pathways enriched in the intersection gene set. […] For FIGS. 8G and 8H, postnatal islets (day P11-14) from WT and β cell specific ERRγKO mice were cultured with or without rhWNT4 (100 ng/ml) for >5 days.

Experiment [2] has as its system ERRγ (ESRRG), mitochondrial and insulin gene expression. As to the kind of experiment: Quantitative RT-PCR gene expression in hiPSC-derived islet organoids/HILOs. The experiment is classed as cell-based, human. Conditions: hiPSC-derived islet organoids, MCS or HILOs. On the procedure:
hiPSCs were cultured in matrigel-coated plates. Single cell suspensions were prepared using Accutase, washed in PBS, and collected by centrifugation (1000-1300 rpm for 5 min). Cells were re-suspended with 3D Kelco Gel Stem TeSR™ Base Medium in the presence of the ROCK inhibitor (10 μM Y-27632, StemCell) for 5 to 7 days until spheroids reached 50-100 μm diameter. The medium was then replaced with 0.015% Kelco gel containing 0.3% methylcellulose and supplemented with 100 ng/ml human Activin A (R&D Systems), 3 μM CHIR99021 (Axon or Selleckchem) in differentiation medium (S1) for 1 day, and then 100 ng/ml human Activin in differentiation medium (S1) for another 2 days (Stage 1, Definitive Endoderm). Subsequently, the medium was replaced with differentiation medium (S2) with 50 ng/ml FGF7 (R&D Systems) for 2 days, differentiation medium (S3) with 50 ng/ml FGF7, 0.25 μM SANT-1 (Sigma), 1 μM Retinoic Acid (Sigma), 100 nM LDN193189, 10 μM Alk5 inhibitor II and 200 nM of the ß-Amyloid Precursor Protein modulator TPB for 3 days, then 50 ng/ml FGF7, 0.25 μM SANT-1 (Sigma), 1 μM Retinoic Acid (Sigma), 100 nM LDN193189, 10 μM Alk5 inhibitor II and 100 nM of the ß-Amyloid Precursor Protein modulator TPB for 2 days. Subsequently the medium was replaced with differentiation medium (S4) with 0.25 μM SANT-1, 50 nM retinoic acid, 100 nM LDN193189, 10 μM Alk5 inhibitor II, 1 μM T3 for 3 days. Subsequently, the medium was replaced with differentiation medium (S5) with 100 nM LDN193189, 100 nM […] inhibitor XX (GSiXX, Millipore), 10 μM Alk5 inhibitor IL, 1 μM T3 for 7 days. Subsequently, the medium was replaced with differentiation media (S5) with 10 μM Trolox (Calbiochem), 2 μM R428 (Selleckchem), 1 mM N-acetyl cysteine, 10 μM Alk5 inhibitor II, 1 μM T3 for an additional 7 to 20 days. […]
Total RNA was extracted using TRIzol reagent (Invitrogen) and RNeasy KIT (Qiagen). […] Real time quantitative RT-PCR (qPCR) was performed using SYBR Green (Bio-Rad).

Entries after “also recorded” stand apart in the source; their conditions may differ.

B1: WNT4: recombinant human Wnt4 protein (R&D Systems), non-canonical WNT maturation factor (protein, UniProt P56705 23-351, looked up)
Protein Wnt-4: SNWLYLAKLSSVGSISEEETCEKLKGLIQRQVQMCKRNLEVMDSVRRGAQLAIEECQYQFRNRRWNCSTLDSLPVFGKVVTQGTREAAFVYAISSAGVAFAVTRACSSGELEKCGCDRTVHGVSPQGFQWSGCSDNIAYGVAFSQSFVDVRERSKGASSSRALMNLHNNEAGRKAILTHMRVECKCHGVSGSCEVKTCWRAVPPFRQVGHALKEKFDGATEVEPRRVGSSRALVPRNAQFKPHTDEDLVYLEPSPDFCEQDMRSGVLGTRGRTCNKTSKAIDGCELLCCGRGFHTAQVELAERCSCKFHWCCFVKCRQCQRLVELHTCR
Take B1: the “mitochondrial metabolic gene expression and GSIS in neonatal islets” value in the experiment with postnatal mouse islets was “induced the expression of mitochondrial metabolic genes and improved GSIS function”. Further, the “proportion of insulin expressing cells” value in experiment [1] (GFP sorting, HILOs with and without WNT treatment) is “not affected”. Besides, the “mitochondrial content / number” value in experiment [1] (MitoTracker, HILOs / insulin-expressing cells) is reported as “increased mitochondrial number; also recorded: increased the mitochondrial content”. Moreover, the entries for the “expression of ERRγ (ESRRG) and mitochondrial genes” value in experiment [2] and in experiment [2] (listed as rhWNT4) were “dose-dependently increased” and “induced”, respectively.

These data come from US12637662B2, “Cells, islets, and organoids that evade immune detection and autoimmunity, methods of production and use thereof” (SALK INSTITUTE FOR BIOLOGICAL STUDIES, priority 2018, dated 2026).
